US20170355781A1 (CCAM BIOTHERAPEUTICS, published 2017)

T1: human CEACAM1 on cells (human, UniProt P13688 35-526)
T1 construct: whole, on cells; Used for endogenous CEACAM1 (526mel, Malme 3M, SKmel5, G361, NK 92MI, primary cells) and for 721.221 transfectants; also called hCEACAM1
T1 sequence (looked up): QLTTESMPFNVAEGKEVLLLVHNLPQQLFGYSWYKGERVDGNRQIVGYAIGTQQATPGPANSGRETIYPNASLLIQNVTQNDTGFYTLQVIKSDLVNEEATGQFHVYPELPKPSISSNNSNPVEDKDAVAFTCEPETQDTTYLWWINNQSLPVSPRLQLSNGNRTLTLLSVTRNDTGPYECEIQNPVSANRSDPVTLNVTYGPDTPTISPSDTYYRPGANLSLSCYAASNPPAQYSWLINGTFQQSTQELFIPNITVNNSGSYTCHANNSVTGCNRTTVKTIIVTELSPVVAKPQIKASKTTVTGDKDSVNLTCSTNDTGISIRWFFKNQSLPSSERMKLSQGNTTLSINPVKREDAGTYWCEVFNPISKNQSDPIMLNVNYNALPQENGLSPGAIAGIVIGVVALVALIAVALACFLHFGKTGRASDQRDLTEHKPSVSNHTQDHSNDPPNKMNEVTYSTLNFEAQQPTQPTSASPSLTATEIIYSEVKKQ

T2: recombinant purified human CEACAM1 (human, UniProt P13688 35-428, limits assumed)
T2 construct: also called purified hCEACAM1; Recombinant CEACAM1
T2 sequence (looked up): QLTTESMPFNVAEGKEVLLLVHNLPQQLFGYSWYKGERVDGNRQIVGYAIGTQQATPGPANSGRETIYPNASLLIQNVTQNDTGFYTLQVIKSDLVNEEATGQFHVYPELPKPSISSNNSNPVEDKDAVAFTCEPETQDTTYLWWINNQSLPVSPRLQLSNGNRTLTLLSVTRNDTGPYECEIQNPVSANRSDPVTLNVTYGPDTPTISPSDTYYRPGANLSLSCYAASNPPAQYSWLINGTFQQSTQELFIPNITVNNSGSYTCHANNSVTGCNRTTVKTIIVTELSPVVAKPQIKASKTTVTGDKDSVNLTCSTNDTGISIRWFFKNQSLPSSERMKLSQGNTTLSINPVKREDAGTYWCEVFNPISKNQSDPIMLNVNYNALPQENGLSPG

T3: CEACAM4 transiently expressed on HEK 293T cells (human, UniProt O75871 36-244)
T3 construct: whole, on cells
T3 sequence (looked up): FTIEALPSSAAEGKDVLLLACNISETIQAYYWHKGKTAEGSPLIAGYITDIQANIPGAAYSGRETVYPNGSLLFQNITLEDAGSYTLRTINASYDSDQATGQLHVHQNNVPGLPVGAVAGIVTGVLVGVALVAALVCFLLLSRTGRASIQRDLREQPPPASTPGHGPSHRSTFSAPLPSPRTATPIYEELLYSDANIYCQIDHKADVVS


Legend:
human CEACAM1 on cells [1] = biological target: T1, human CEACAM1 on cells
[2] = biological target: T2, recombinant purified human CEACAM1; assay: indirect ELISA on plate-bound purified human CEACAM1, double dilutions of CM10
Description: The binding specificity of CM10 to human CEACAM1 was tested in ELISA assay using purified human CEACAM1. Indirect ELISA using 23 double dilutions of CM10 were used to generate specific binding curve. The results shown in FIG. 2 represent average O.D. from triplicate±SE. Similar results were obtain from other ten independent experiments.

[3] = biological target: T3, CEACAM4 transiently expressed on HEK …; assay: flow cytometry, biotinylated CM10 plus Strep-Avidin APC on HEK 293T cells transiently expressing CEACAM-4
Description: A standard FACS protocol was used with CM10 conjugated to a Biotin molecule and Strep-Avidin APC as secondary agent. […] Empty histograms represent mAb staining while red histograms represent background staining. At least 10000 cells were used to analyze CM10 binding in each histogram. FAB was calculated by dividing the MFI of the stained cells in the MFI of the background staining.

human CEACAM1 on cells [4] = biological target: T1, human CEACAM1 on cells; assay: blocking assay by FACS: SKMEL5 cells (CEACAM1 positive) pre-incubated with CM10 and washed, then soluble biotinylated CEACAM5 detected with streptavidin-APC
Description: CEACAM1 positive cell line (SKMel 5) was incubated with an isotype control or CM10 in various concentrations, unbound CM10 was washed twice, followed by incubation with or without soluble biotinylated CEACAM5. The binding of the biotinylated CEACAM5 to the cells was detected by a secondary strepavidin-APC and FACS analysis. The results represent the mean of duplicate wells±SE. Similar results were obtained in two other independent experiments.

[5] = biological target: T2, recombinant purified human CEACAM1; assay: SPR, Biacore 3000, antibody immobilized on CM5 chip, recombinant CEACAM1 flowed; average of three independent experiments
Description: (§1) Each antibody was immobilized onto a single channel of a CM5 sensor chip of Biacore3000 instrument by NHS-EDC coupling chemistry.
(§2) Recombinant CEACAM1 was flowed at 50 μl/min over the chip in various concentrations (0.19, 0.39, 0.78, 1.56, 3.12, 6.25, 12.5 and 25 nM). The running buffer was PBS-ET (10 mM p-buffer pH7.4, 150 mM NaCl, 3.4 mM EDTA and 0.005% tween 20).

[6] = biological target: chimeric molecule composed of the extracellular portion of human CEACAM1 fused to mouse z-chain, on BW cells (human; mouse, UniProt P13688 35-428; P24161 31-164); assay: cell-based or functional assay
[7] = biological target: T2, recombinant purified human CEACAM1; assay: SPR, Biacore 3000, antibody immobilized on CM5 chip, recombinant CEACAM1 flowed; three independent experiments
Description: as §1, §2

mouse IL-2 secretion (ELISA), BW/221+ co-culture, no CM10 (human CEACAM1 on cells [1]) [pg/mL]	EC50 (read off the curve) [2] [ng/mL]	binding result [3]	IC50 (read off the curve) (human CEACAM1 on cells [4]) [µg/mL]	Kd [5] [nM]	IC50 (read off the curve) of the block of mouse IL-2 secretion in the BW/221+ co-culture [6] [ng/mL]	Kd [7] [nM]	Molecule
289	–	–	–	–	–	–	chimeric molecule composed of the extracellular portion of human CEACAM1 fused to mouse z-chain, on BW cells (from UniProt P13688 35-428; P24161 31-164) (receptor)
–	~10	no binding (tested: 1 µg/ml)	~0.1	4.56	~10	4.07 to 5.05	chimeric monoclonal antibody CM10 (antibody, human IgG1, kappa, V domains shown, made in CHO cells; PE-conjugated CM10 was used for the QuantiBRITE count; also called CM10.S91; anti CEACAM1 mAb, CM10) VH: QVQLQQSGAELVRPGTSVKVSCKASGYAFTNNLIEWVKQRPGQGLEWIGVINPGSGDTNYNEKFKGKATLTADKSSNTAYMQLSSLTSDDSAVYFCARGDYYGGFAVDYWGQGTSVTVSS VL: DIQMTQTTSSLSASLGDRVTISCRTSQDIGNYLNWYQQKPDGTVKLLIYYTSRLHSGVPSRFSGSGSGTDYSLTISNLEQEDIATYFCQQGKSLPRTFGGGTKLEIKR
